Measurements taken from patent publication US20210355208.

Molecular target: anti-EGFR activatable antibodies comprising substrates 2001, 2006-2010 and 2012

B1: human matriptase (protein)
chain: VVGGTDADEGEWPWQVSLHALGQGHICGASLISPNWLVSAAHCYIDDRGFRYSDPTQWTAFLGLHDQSQRSAPGVQERRLKRIISHPFFNDFTFDYDIALLELEKPAEYSSMVRPICLPDASHVFPAGKAIWVTGWGHTQYGGTGALILQKGEIRVINQTTCENLLPQQITPRMMCVGFLSGGVDSCQGDSGGPLSSVEADGRIFQAGVVSWGDGCAQRNKPGVYTRLPLFRDWIKENTGV
  kcat/Km: a range of kcat/Km values ranging from 6E+02 to 2E+04
